Experimental data: patent US20260184814A1 (priority 2022, published 2026)

How the values were obtained:
[1] = system: BNA7 from B/Perth/211/2011
[2] = FIG. 50B; design: CLEARANCE (μg/ml): unit not given here
[3] = FIG. 32
[4] = system: N9 from A/Anhui/1/2013; format: binding
[5] = biological target: IAV and IBV NA antigens; format: binding, influenza A virus, influenza B virus
[6] = biological target: group I (H1N1) IAV, group II (H3N2) IAV, and IBV NAs; format: biochemical, influenza A virus, influenza B virus
[7] = system: pseudovirus-derived neuraminidase; format: biochemical, influenza A virus
[8] = biological target: N1 and N2 neuraminidases; format: biochemical, influenza A virus

## FNI9
[1]
  IC50: 23.209 mg/mL

## FNI9-LS
[2]
  AUC: 527.46 ± 75.92 µg·days/mL
  CLEARANCE (μg/ml): 1.47 ± 0.19
  HALF-LIFE: 13.37 ± 1.52 days
[3]
  AUCLAST: 254.583 µg·days/mL
  CLss: 1.944 mL/day
  HALF-LIFE: 14.198 days
  LAMBDA_Z: 0.05 day⁻¹
  Vz: 40.281 mL

## FNI9-v8.1: FNI9 variant with S28T in VH; VH SEQ ID NO:54, VL SEQ ID NO:8
[4]
  binding to N9_A_Anhui_2013, assessed by flow cytometry: binds more strongly
[5]
  affinity by surface plasmon resonance: higher affinity
[6]
  in vitro inhibition of sialidase activity (reported as IC50): improved
[7]
  IC50 for inhibiting sialidase activity in an ELLA assay: lower IC50
[8]
  IC50 for inhibiting sialidase activity in a MUNANA assay: lower IC50
